# Data from patent publication US20260274955A1 (JANUX THERAPEUTICS, published 2026).
# Columns and labels:
# [1] = target: anti-CD28 Fab (SEQ ID NOs: 202, 203); assay: phage ELISA, Fab on plate;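 further: ELISA of crude clonal phage supernatants on the plate, wells preloaded with CD28 antigen or only blocking buffer, captured phage read out via HRP-linked anti-M13 antibody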
# Target sequence in this assay (VH, as listed by the source, chain 1 of 2): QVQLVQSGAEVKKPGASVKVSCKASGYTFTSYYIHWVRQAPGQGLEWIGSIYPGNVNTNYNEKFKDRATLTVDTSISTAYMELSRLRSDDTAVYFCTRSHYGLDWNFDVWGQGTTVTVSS
# Target sequence in this assay (VL, as listed by the source, chain 2 of 2): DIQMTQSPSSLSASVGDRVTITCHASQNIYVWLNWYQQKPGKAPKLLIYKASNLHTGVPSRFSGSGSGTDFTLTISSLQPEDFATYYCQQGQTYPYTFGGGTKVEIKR
# [2] = target: T1, anti-CD28 Fab (SEQ ID NOs: 202, 203); assay: phage ELISA on captured Fab, wells pre-incubated with CD28 antigen (competitor);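 further: clonal phage ELISA with wells pretreated with CD28 plus blocking buffer before phage addition, bound phage detected by HRP-linked anti-M13 antibody, reference wells got blocking buffer only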
# T1 construct: biotinylated and captured on neutravidin coated plates in the phage ELISA
# T1 sequence (VH, as listed by the source, chain 1 of 2): as the sequence (VH, as listed by the source, chain 1 of 2) above
# T1 sequence (VL, as listed by the source, chain 2 of 2): as the sequence (VL, as listed by the source, chain 2 of 2) above
# Description: (§1) Clonal phage were harvested as crude supernatants and screened via standard ELISAs. […] Prior to the addition of clonal phage, wells were incubated with blocking buffer and CD28 antigen or blocking buffer alone. Without washing or aspirating, clonal phage supernatants were then added to the wells and incubated for a short time. Wells were then washed followed by detection of bound phage using a horse radish conjugated anti-M13 antibody.
# [3] = target: T1, anti-CD28 Fab (SEQ ID NOs: 202, 203); assay: phage ELISA on captured Fab;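 further: ELISA with clonal phage supernatants added to wells preincubated with CD28 antigen or with blocking buffer only, bound phage detected by HRP-conjugated anti-M13 antibody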
# Description: as §1
binder,measurement,setting,value
TCSAGAHYPWPICL [Phage-1131],Anti-CD28 Fab signal,[1],1.41
TCSAGAHYEWPKCL [Phage-1202],Anti-CD28 Fab signal,[1],1.12
PCSAGVTYAWLYCV [Phage-1140],Anti-CD28 Fab signal,[1],1.41
TCAAGANYAWPVCL [Phage-1205],Anti-CD28 Fab signal,[1],1.09
RCSFRFITLAEACV [Phage-1130],Anti-CD28 Fab signal,[1],1.41
TCSAGATYTWPVCF [Phage-1201],Anti-CD28 Fab signal,[1],1.13
TCSAGATYSWPLCF [Phage-1203],Anti-CD28 Fab signal,[1],1.12
TCAAGATYSWPSCF [Phage-1204],Anti-CD28 Fab signal,[1],1.1
RCAAGFHYSWPNCF [Phage-1134],Anti-CD28 Fab signal,[1],1.41
TCAAGATYNWPWCF [Phage-1207],Anti-CD28 Fab signal,[1],1.07
LCAAGAHYSWPACF [Phage-1139],Anti-CD28 Fab signal,[1],1.41
LCAAGFMYEWPLCF [Phage-1143],Anti-CD28 Fab signal,[1],1.4
GCAAGASYPWPACL [Phage-1135],Anti-CD28 Fab signal,[1],1.41
TCAAGAQFAWPLCL [Phage-1132],Anti-CD28 Fab signal,[1],1.41
"YCDGHNFQYMEKCL (on phage, pIII fusion) [Phage-598]",Anti-CD28 Fab signal in the presence of CD28,[2],0.06
same,"Anti-CD28 Fab (SEQ ID NOs: 202, 203) signal",[3],1.44
LCSAGFLFQWSTCL [Phage-1133],Anti-CD28 Fab signal,[1],1.41
"YCDGHLPEYMNQCL (on phage, pIII fusion) [Phage-597]",Anti-CD28 Fab signal in the presence of CD28,[2],0.07
same,"Anti-CD28 Fab (SEQ ID NOs: 202, 203) signal",[3],1.44
"YCEGHSQEYMAKCL (on phage, pIII fusion) [Phage-596]",Anti-CD28 Fab signal in the presence of CD28,[2],0.06
same,"Anti-CD28 Fab (SEQ ID NOs: 202, 203) signal",[3],1.44
PCAAGAMWPWPVCL [Phage-1136],Anti-CD28 Fab signal,[1],1.41
TCSAGATYSWPACL [Phage-1137],Anti-CD28 Fab signal,[1],1.41
QCAAGATYPWPVCL [Phage-1200],Anti-CD28 Fab signal,[1],1.13
MCAAGAAWAWPLCL [Phage-1141],Anti-CD28 Fab signal,[1],1.4
TCAAGASYPWPLCV [Phage-1142],Anti-CD28 Fab signal,[1],1.4
TCAAGAHYEWPQCF [Phage-1206],Anti-CD28 Fab signal,[1],1.08
SCSAGASLQLSQCF [Phage-1129],Anti-CD28 Fab signal,[1],1.41
TCAAGASWNWPACE [Phage-1138],Anti-CD28 Fab signal,[1],1.41
TCAAGATWTWPTCM [Phage-1208],Anti-CD28 Fab signal,[1],1.07
